Experimental findings from PMC2746449 are described below.

In one data set the target is T1, Flag-Aub mutant (M) (Drosophila melanogaster, UniProt O76922 1-866, R11K;R13K;R15K;R17K).
T1 sequence: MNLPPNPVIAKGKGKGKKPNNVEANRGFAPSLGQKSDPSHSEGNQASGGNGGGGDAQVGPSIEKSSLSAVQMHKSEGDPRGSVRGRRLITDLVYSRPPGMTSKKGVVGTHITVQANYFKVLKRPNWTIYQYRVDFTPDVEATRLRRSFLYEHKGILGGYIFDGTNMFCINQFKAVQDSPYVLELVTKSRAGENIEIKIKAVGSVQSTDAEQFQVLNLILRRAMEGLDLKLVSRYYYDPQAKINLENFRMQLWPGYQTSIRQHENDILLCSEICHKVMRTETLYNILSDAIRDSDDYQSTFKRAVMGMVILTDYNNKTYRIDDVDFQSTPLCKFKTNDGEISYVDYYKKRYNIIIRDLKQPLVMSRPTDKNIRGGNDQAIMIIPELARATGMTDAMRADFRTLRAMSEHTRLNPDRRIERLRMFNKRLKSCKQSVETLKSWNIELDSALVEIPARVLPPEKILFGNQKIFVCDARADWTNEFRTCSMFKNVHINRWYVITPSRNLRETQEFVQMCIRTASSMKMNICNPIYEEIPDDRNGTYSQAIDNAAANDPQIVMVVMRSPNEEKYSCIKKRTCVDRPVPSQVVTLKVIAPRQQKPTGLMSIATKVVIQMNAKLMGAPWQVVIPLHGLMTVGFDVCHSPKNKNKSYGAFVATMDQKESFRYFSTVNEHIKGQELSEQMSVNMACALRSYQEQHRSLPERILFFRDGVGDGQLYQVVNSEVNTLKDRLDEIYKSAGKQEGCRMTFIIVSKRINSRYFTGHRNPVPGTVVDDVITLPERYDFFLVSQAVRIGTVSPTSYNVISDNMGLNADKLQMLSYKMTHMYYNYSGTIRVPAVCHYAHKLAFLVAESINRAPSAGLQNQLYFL
Nature of the data set: UV crosslinking.

For another data set, the target named is T2, Flag-Aub WT (Drosophila melanogaster, UniProt O76922 1-866).
T2 sequence: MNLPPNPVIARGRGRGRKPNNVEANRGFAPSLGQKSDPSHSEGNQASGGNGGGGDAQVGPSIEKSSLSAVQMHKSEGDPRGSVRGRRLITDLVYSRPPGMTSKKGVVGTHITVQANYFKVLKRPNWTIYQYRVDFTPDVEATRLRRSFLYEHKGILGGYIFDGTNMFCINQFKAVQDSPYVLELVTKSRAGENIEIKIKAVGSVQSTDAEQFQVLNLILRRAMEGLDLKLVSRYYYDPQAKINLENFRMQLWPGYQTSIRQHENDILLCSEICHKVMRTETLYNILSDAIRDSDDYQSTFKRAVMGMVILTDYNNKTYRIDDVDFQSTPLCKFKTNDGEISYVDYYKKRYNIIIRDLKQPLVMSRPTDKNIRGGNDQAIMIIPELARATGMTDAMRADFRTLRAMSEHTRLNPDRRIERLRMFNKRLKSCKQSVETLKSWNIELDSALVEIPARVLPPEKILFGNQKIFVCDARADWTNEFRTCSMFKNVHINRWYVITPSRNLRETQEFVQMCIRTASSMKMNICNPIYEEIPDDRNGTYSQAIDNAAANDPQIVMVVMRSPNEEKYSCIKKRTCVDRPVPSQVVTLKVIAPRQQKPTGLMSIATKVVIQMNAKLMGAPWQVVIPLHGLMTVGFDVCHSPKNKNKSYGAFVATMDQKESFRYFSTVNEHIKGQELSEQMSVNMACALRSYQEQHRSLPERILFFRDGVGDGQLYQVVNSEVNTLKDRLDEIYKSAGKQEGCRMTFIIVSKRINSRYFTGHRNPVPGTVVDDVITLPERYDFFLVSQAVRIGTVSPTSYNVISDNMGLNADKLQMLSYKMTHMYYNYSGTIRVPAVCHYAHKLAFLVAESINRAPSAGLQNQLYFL
Nature of the data set: UV crosslinking.

For UGACAUGAACACAGGUGCUCAGAUAGCUUU (ssRNA, 4-thio-uridine (s4U) at position 1) [synthetic piRNA with s4U at position 1], the binding result with Flag-Aub mutant (M) and with Flag-Aub WT was “binds” in each case.
